Laboratory results: patent US20060003400A1, “Methods and compositions for characterizing a redox reagent system enzyme” (priority 2004, published 2006)

Legend:
Assay type in all cases: biochemical
[1] = DCIP/PES spectrophotometric assay (enzyme-limiting conditions); conditions: same range of sugar concentrations; results not shown
Protocol: (§1) In order to develop an assay for screening mutant forms of s-GDH with varying sugar specificities, the response of wild type and mutant forms of s-GDH with reducing sugars first were tested in a conventional enzyme-coated glucose test strip format. The screening assay ideally mimics the response shown with conventionally enzyme-coated strips tested with whole blood or plasma spiked with a reducing sugar. The mutant forms of s-GDH tested contained one amino acid substitution each: Asn452Thr and Asp167Glu. The test strips were made by a web-based process in which the working electrode (gold) was slot coated with a buffered reagent solution containing approximately 50 to 500 kU/ml wild type or mutant s-GDH, PQQ at a 2 to 1 mole ratio of PQQ to GDH, 2 mM CaCl2, 750 mM ferricyanide, 67 mM citraconate at pH 6.8, 0.1% pluronics and 75 mM sucrose. […] In the assay, change in the absorbance of DCIP at 600 nm was monitored and the decreasing rate of absorbance was referred to as the reaction rate of the enzyme. […]
(§2) Plasma with about 80 mg/dL (or 4.4 mM) endogenous glucose was spiked with up to 40 mM each of five reducing sugars: glucose, maltose, xylose, galactose and lactose. The spiked samples were dosed onto the above test strips and glucose concentration was determined by chronoamperometry as above. […]

[2] = Conventional wild type s-GDH-coated test strips dosed with plasma spiked with reducing sugars, chronoamperometry; conditions: plasma spiked with up to 40 mM of five reducing sugars; at less than about 10 mM; FIG. 5
Protocol: as §1, §2

[3] = Enzyme/sugar solution dosed onto enzyme-free electrochemical cell (process of the invention), current response; conditions: FIGS. 6-8; for Current response to xylose compared with glucose: xylose less than 10 mM, about 13 activity units per cell; for Current response to all reducing sugars tested: sugars up to about 40 mM
Protocol: The response of wild-type s-GDH to reducing sugars was measured using electrochemical cells (i.e., test strips) made by a web-based process in which the working electrode (gold) was slot coated with a buffered reagent solution containing 750 mM ferricyanide, 67 mM citraconate at pH 6.8, 0.1% pluronics and 75 mM sucrose. As in Example 1, an IR energy source was used to dry the reagent onto the working electrode. Electrochemical cells were formed by adhering the working electrode with dried reagent to a gold counter electrode containing dried MESA to prevent fouling of the counter electrode.
Wild-type s-GDH in 67 mM citraconate at pH 6.8 with PQQ at a 2 to 1 mole ratio of PQQ to GDH and 2 mM CaCl2 was mixed with physiologically relevant concentrations (up to about 40 mM or 720 mg/dL) of one of the following sugars: glucose, xylose, galactose, maltose, or lactose. The concentration of the wild type s-GDH in each solution was adjusted such that approximately 13 activity units per electrochemical cell were used. Each enzyme/sugar-containing solution was dosed onto an electrochemical cell containing dried ferricyanide, citraconate, Pluronics and sucrose but no enzyme (see above for concentrations). The current response was measured and the average of three determinations was graphed as a function of sugar concentration, as shown in FIG. 6.
The response of Asn452Thr to reducing sugars was measured using the same lot of electrochemical cells as described in Example 2 above (i.e., with cells containing dried ferricyanide, citraconate, Pluronics and sucrose but no enzyme). Asn452Thr was mixed with physiologically relevant concentrations (up to about 40 mM or 720 mg/dL) of one of the following sugars: glucose, xylose, galactose, maltose, or lactose. The concentration of Asn452Thr in each solution was adjusted such that approximately 13 activity units per electrochemical cell were used. Each enzyme/sugar-containing solution was dosed onto an electrochemical cell containing dried ferricyanide, citraconate, Pluronics and sucrose but no enzyme. […] Thus, the assay mimics the results obtained with Asn452Thr-coated strips with the advantages discussed above.
The response of Asp167Glu to reducing sugars was measured as described in Example 3 above. Asp167Glu was mixed with physiologically relevant concentrations (up to about 40 mM or 720 mg/dL) of one of the following sugars: glucose, xylose, galactose, maltose, or lactose; and dosed onto an electrochemical cell containing dried ferricyanide, citraconate, Pluronics and sucrose but no enzyme. […] Thus, again, the assay beneficially mimics the results obtained with Asp167Glu-coated strips but in a quick and easy-to-use format.

[4] = Conventional enzyme-coated test strips dosed with whole blood spiked with interfering sugar, chronoamperometry; conditions: whole blood about 80 mg/dL glucose spiked with about 4 mM or 12 mM xylose; FIG. 4
Protocol: In order to develop an assay for screening mutant forms of s-GDH with varying sugar specificities, the response of wild type and mutant forms of s-GDH with reducing sugars first were tested in a conventional enzyme-coated glucose test strip format. The screening assay ideally mimics the response shown with conventionally enzyme-coated strips tested with whole blood or plasma spiked with a reducing sugar. The mutant forms of s-GDH tested contained one amino acid substitution each: Asn452Thr and Asp167Glu. The test strips were made by a web-based process in which the working electrode (gold) was slot coated with a buffered reagent solution containing approximately 50 to 500 kU/ml wild type or mutant s-GDH, PQQ at a 2 to 1 mole ratio of PQQ to GDH, 2 mM CaCl2, 750 mM ferricyanide, 67 mM citraconate at pH 6.8, 0.1% pluronics and 75 mM sucrose. […] The activity of each enzyme was based on a spectrophotometric assay using DCIP (2,6-Dichlorophenolindophenol) and PES (Phenazine Ethosulfate) in 50 mM PIPES (Piperazine, N,N′bis-(2-ethanesulfonic acid)) buffer at pH 6.8. In the assay, change in the absorbance of DCIP at 600 nm was monitored and the decreasing rate of absorbance was referred to as the reaction rate of the enzyme. The enzyme activity by which […] of DCIP was reduced in one minute was defined as 1 Unit. The molar absorption coefficient of DCIP at pH 6.8 was 17.4 mM-1. A COBAS FARA II centrifugal analyzer was used for the spectrophotometric assay. […]
Whole blood at about 80 mg/dL (or 4.4 mM) of endogenous glucose was spiked with either a high therapeutic level (about 60 mg/dL or 4 mM) or three times a high therapeutic level (about 180 mg/dL or 12 mM) of the interfering sugar xylose. The spiked samples were dosed onto the above test strips and glucose concentration was determined by chronoamperometry in which a potential of −0.3 V was applied for 10 seconds, followed by applying a potential of +0.3 V for 5 seconds. Absolute bias to a control sample with no xylose was calculated for each enzyme and was expressed as a function of xylose concentration, as shown in FIG. 4.

Row | Molecule | Reactivity with xylose and galactose [1] | Current response as a function of sugar concentration [2] | Current response to xylose compared with glucose [3] | Absolute bias to a control sample with no xylose as a function of xylose concentration [4] | Current response to all reducing sugars tested [3]
1 | wild-type s-GDH: soluble form of pyrroloquinoline quinone (PQQ)-dependent glucose dehydrogenase, naturally occurring (protein, UniProt P13650 25-478, looked up) Quinoprotein glucose …: DVPLTPSQFAKAKSENFDKKVILSNLNKPHALLWGPDNQIWLTERATGKILRVNPESGSVKTVFQVPEIVNDADGQNGLLGFAFHPDFKNNPYIYISGTFKNPKSTDKELPNQTIIRRYTYNKSTDTLEKPVDLLAGLPSSKDHQSGRLVIGPDQKIYYTIGDQGRNQLAYLFLPNQAQHTPTQQELNGKDYHTYMGKVLRLNLDGSIPKDNPSFNGVVSHIYTLGHRNPQGLAFTPNGKLLQSEQGPNSDDEINLIVKGGNYGWPNVAGYKDDSGYAYANYSAAANKSIKDLAQNGVKVAAGVPVTKESEWTGKNFVPPLKTLYTVQDTYNYNDPTCGEMTYICWPTVAPSSAYVYKGGKKAITGWENTLLVPSLKRGVIFRIKLDPTYSTTYDDAVPMFKSNNRYRDVIASPDGNVLYVLTDTAGNVQKDDGSVTNTLENPGSLIKFTYKAK | low reactivity with xylose and galactose | reacts equally well with each of the five reducing sugars tested | reacted equally well with glucose and xylose | linear correlation | 
2 | Asn452Thr: mutant form of s-GDH with one amino acid substitution, Asn452Thr (protein, UniProt P13650 25-478, looked up, variant N452T) Quinoprotein glucose …: DVPLTPSQFAKAKSENFDKKVILSNLNKPHALLWGPDNQIWLTERATGKILRVNPESGSVKTVFQVPEIVNDADGQNGLLGFAFHPDFKNNPYIYISGTFKNPKSTDKELPNQTIIRRYTYNKSTDTLEKPVDLLAGLPSSKDHQSGRLVIGPDQKIYYTIGDQGRNQLAYLFLPNQAQHTPTQQELNGKDYHTYMGKVLRLNLDGSIPKDNPSFNGVVSHIYTLGHRNPQGLAFTPNGKLLQSEQGPNSDDEINLIVKGGNYGWPNVAGYKDDSGYAYANYSAAANKSIKDLAQNGVKVAAGVPVTKESEWTGKNFVPPLKTLYTVQDTYNYNDPTCGEMTYICWPTVAPSSAYVYKGGKKAITGWENTLLVPSLKRGVIFRIKLDPTYSTTYDDAVPMFKSNNRYRDVIASPDGNVLYVLTDTAGTVQKDDGSVTNTLENPGSLIKFTYKAK |  |  | reacts equally well with glucose and xylose | linear correlation | reacts equally well with all the sugars tested at less than 10 mM sugar
3 | Asp167Glu: mutant form of s-GDH with one amino acid substitution, Asp167Glu (protein, UniProt P13650 25-478, looked up, variant D167E) Quinoprotein glucose …: DVPLTPSQFAKAKSENFDKKVILSNLNKPHALLWGPDNQIWLTERATGKILRVNPESGSVKTVFQVPEIVNDADGQNGLLGFAFHPDFKNNPYIYISGTFKNPKSTDKELPNQTIIRRYTYNKSTDTLEKPVDLLAGLPSSKEHQSGRLVIGPDQKIYYTIGDQGRNQLAYLFLPNQAQHTPTQQELNGKDYHTYMGKVLRLNLDGSIPKDNPSFNGVVSHIYTLGHRNPQGLAFTPNGKLLQSEQGPNSDDEINLIVKGGNYGWPNVAGYKDDSGYAYANYSAAANKSIKDLAQNGVKVAAGVPVTKESEWTGKNFVPPLKTLYTVQDTYNYNDPTCGEMTYICWPTVAPSSAYVYKGGKKAITGWENTLLVPSLKRGVIFRIKLDPTYSTTYDDAVPMFKSNNRYRDVIASPDGNVLYVLTDTAGNVQKDDGSVTNTLENPGSLIKFTYKAK |  |  | reduced response to xylose | reduced response with xylose | reacts equally well with all the other reducing sugars tested
